Measured values from patent US20220033501A1 (SHANGHAI PHARMAEXPLORER, published 2022).
Where a chain is given by its changes, count along the chain named.

T1: human TIM-3 on CHOK1 stable cell line (CHOK1-hTIM-3) (human, UniProt Q8TDQ0 22-301)
T1 sequence: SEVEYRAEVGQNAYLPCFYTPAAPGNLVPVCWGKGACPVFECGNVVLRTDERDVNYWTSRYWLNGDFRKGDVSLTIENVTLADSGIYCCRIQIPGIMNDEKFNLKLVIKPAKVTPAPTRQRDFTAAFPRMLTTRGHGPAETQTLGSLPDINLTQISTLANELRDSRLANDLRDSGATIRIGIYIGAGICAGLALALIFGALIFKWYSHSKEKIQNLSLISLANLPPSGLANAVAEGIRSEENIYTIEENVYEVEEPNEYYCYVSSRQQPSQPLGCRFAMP

T2: monkey TIM-3 on CHOK1 stable cell line (CHOK1-cTIM-3) (monkey)
T2 chain: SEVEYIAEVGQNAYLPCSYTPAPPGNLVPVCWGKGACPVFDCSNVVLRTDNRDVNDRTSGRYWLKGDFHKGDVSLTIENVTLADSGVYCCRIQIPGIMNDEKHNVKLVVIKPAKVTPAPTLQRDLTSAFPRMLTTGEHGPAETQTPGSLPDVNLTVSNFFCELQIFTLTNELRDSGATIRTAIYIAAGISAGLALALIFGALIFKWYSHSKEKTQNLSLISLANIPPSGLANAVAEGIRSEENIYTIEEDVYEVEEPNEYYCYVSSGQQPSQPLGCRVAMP

T3: monkey TIM-3 extracellular domain protein with hFc tag (cTIM-3-hFc) (monkey)
T3 construct: not shown: human IgG Fc fragment (hFc) of the pCpC vector
T3 chain: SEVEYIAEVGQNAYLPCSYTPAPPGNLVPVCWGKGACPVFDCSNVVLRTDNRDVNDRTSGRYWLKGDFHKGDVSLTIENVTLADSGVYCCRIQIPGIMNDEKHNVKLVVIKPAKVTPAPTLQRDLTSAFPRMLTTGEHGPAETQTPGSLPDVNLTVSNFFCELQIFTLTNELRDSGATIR

T4: human TIM-3 extracellular domain protein with hFc tag (hTIM-3-hFc) (human, UniProt Q8TDQ0 22-200)
T4 construct: not shown: human IgG Fc fragment (hFc) of the pCpC vector
T4 sequence: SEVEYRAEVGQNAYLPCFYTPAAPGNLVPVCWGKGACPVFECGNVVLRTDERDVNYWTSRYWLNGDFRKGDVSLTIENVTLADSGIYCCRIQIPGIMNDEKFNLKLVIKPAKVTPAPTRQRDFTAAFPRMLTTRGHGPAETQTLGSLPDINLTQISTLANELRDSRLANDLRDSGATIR

T5: murine TIM-3 extracellular domain protein with hFc tag (mTIM-3-hFc) (mouse, UniProt Q8VIM0 29-191)
T5 construct: also called mouse TIM-3 extracellular domain protein; not shown: human IgG Fc fragment (hFc) of the pCpC vector
T5 chain: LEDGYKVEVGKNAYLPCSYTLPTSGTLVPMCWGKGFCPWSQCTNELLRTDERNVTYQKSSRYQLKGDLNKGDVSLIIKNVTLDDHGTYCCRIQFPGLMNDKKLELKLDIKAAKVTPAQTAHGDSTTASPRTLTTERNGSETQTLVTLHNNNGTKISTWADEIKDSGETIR

T6: murine TIM-3 protein with hFc tag (mTIM-3-hFc protein) (mouse; human, UniProt Q8VIM0 29-191)
T6 construct: Made in HEK293 cells; also called mouse TIM-3 extracellular domain protein; not shown: human IgG Fc fragment (hFc) of the pCpC vector
T6 chain: T5 chain

B1: 215A8F2 fully human TIM-3 antibody (human IgG4, kappa) (antibody, V domains shown)
VH: QVQLQQWGAGLLKPSETLSLTCTVYGGSFSGYYWNWIRQPPGKGLEWLGEINHSGSTNYNPSLKRRVTISVDTSKNQFSLKLSSVTAADTAVYYCARVYYYGPFDFWGQGTLVTVSS
VL: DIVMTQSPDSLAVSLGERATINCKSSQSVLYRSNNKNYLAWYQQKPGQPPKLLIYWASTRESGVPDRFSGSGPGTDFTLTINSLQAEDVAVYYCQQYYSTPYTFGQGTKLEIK
B2: 215A8F2 (TIM-3 antibody purified from hybridoma, chimeric antibody of Example 2) (antibody, V domains shown)
VH: B1 VH
VL: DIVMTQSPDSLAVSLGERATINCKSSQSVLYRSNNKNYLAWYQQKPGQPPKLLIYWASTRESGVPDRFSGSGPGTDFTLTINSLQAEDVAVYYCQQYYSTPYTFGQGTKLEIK
notes: From hybridoma of Harbour H2L2 transgenic mice: human variable regions, rat constant regions
B3: 34B6D8 (TIM-3 antibody purified from hybridoma, chimeric antibody of Example 2) (antibody, V domains shown)
VH: EVQLVESGGGLVQPGGSLRLSCAASGFTFSTYWMTWVRQAPGKRLEWVANIKQGGGDKYYVDSVKGRFTISTDNAKNSLYLQMNSLRAEDTAVYYCARGSNWFDPWGQGTLVTVSS
VL: EIVMTQSPATLSMSPGERATLSCRASQSVYDNLAWYQQKPGQAPRLLIYGASTRATGIPARFSGSGSGTEFTLTISSLQSEDFALYYCQQYTHWPITFGQGTRLEIK
notes: as for B2
B4: 57F4E5 fully human TIM-3 antibody (human IgG4, kappa) (antibody, V domains shown)
VH: EVQLVESGGGLVQPGGSLRLSCAASGFTFSSYWMSWVRQAPGKGLEWVANIKQDGSEKYYVDSVKGRFTISRDSAKNSLYLQMNSLRAEDTAMYFCARDSNFFDYWGQGTLVTVSS
VL: ETVMTQSPATLSVSPGERATLSCRASQSVSSNLAWYQRKPGQAPRLLIYFSSTRATGIPARFSGSGSGTEFTLTISSLQSEDFAVYYCQQYNNWPLTFGGGTKVEIK
B5: 134H3G6 fully human TIM-3 antibody (human IgG4, kappa) (antibody, V domains shown)
VH: EVQLVESGGGLVQPGGSLRLSCAASGFTFSNSWMTWVRQAPGKGLEWVANIKQAGTEKYYVDSVKGRFTISRDNAKNSLYLQMNSLRAEDTAVYYCNSGSNYFDYWGQGTLVTVSS
VL: B4 VL with T2I, S26R, S28N, V29F, S30Y, R38Q, F50G, S51A
B6: 39E5H1 (TIM-3 antibody purified from hybridoma, chimeric antibody of Example 2) (antibody, V domains shown)
VH: B3 VH with T31S, T35S, R44G, Q53R, G56S, D57E, K58R, T72G, L79V
VL: B3 VL with I2T, T10I, M13V, D31S, P40L, G50D, L85V, T92N, H93N
notes: as for B2
B7: 18D2H2 (TIM-3 antibody purified from hybridoma, chimeric antibody of Example 2) (antibody, V domains shown)
VH: B3 VH with G10D, K43R, R44G, G54D, G56S, D57A, I70L, T72R, N74D, P105Y
VL: B4 VL with S26N, S28N, S30Y, R38Q, F50D, S51A, I58F
notes: as for B2
B8: 57F4E5 (TIM-3 antibody purified from hybridoma, chimeric antibody of Example 2) (antibody, V domains shown)
VH: B4 VH
VL: B4 VL
notes: as for B2
B9: 134H3G6 (TIM-3 antibody purified from hybridoma, chimeric antibody of Example 2) (antibody, V domains shown)
VH: B5 VH
VL: B4 VL with T2I, S26R, S28N, V29F, S30Y, R38Q, F50G, S51A
notes: as for B2
B10: 7A4F10 fully human TIM-3 antibody (human IgG4, kappa) (antibody, V domains shown)
VH: EVQLLESGGGLVQPGGSLRLSCAASGFTFRTHLISWVRQAPGKGLEWVAAITGSGGSTYYADSVKGRFIISRDNSKNTLFLQMNSLRAEDTAVYYCAKDGGSGSYDDFWGQGTLVTVSS
VL: ETVLTQSPVTLSLSPGERATLSCRASQSVGSYLAWYQQKPGQAPRLLIYDASNRATGIPARFSGSGSGTDFTLTISSLEPEDFAVYYCQQRSNWPPTFGQGTKVEIK
B11: 7A4F10 (TIM-3 antibody purified from hybridoma, chimeric antibody of Example 2) (antibody, V domains shown)
VH: B10 VH
VL: B10 VL
notes: as for B2

Legend:
[1] = target: T1, human TIM-3 on CHOK1 stable cell line …; assay: FACS, CHOK1-hTIM-3 cells, 8 nM antibody
[2] = target: T2, monkey TIM-3 on CHOK1 stable cell line …; assay: FACS, CHOK1-cTIM-3 cells, 0.013 nM antibody
[3] = target: T3, monkey TIM-3 extracellular domain …; assay: ELISA, coated monkey TIM-3 ECD protein, 6.6667 nM antibody
[4] = target: T4, human TIM-3 extracellular domain …; assay: ELISA, coated human TIM-3 ECD protein, 0.6667 nM antibody
[5] = target: T3, monkey TIM-3 extracellular domain …; assay: ELISA, coated monkey TIM-3 ECD protein, 0 nM antibody
[6] = target: T5, murine TIM-3 extracellular domain …; assay: ELISA, coated mouse TIM-3 ECD protein, 0.0667 nM antibody
[7] = target: T6, murine TIM-3 protein with hFc tag …; assay: ELISA, coated mTIM-3-hFc; antibody 66.667 nM
Description: (§1) The amino acid sequence 22-200 of the extracellular domain of the human TIM-3 protein described in the step of Example 1 (as shown in SEQ ID NO. 71 in the sequence listing) was cloned into a pCpC vector having a human IgG Fc fragment (hFc), and transfected into HEK293 cells. The cell culture medium was collected, and purified to obtain the human TIM-3 protein with hFc tag (herein referred to as hTIM-3-hFc protein). The amino acid sequence 22-201 of the extracellular domain of the monkey TIM-3 protein (as shown in SEQ ID NO. 72 in the sequence listing) was cloned into a pCpC vector having a human IgG Fc fragment (hFc), and transfected into HEK293 cells. The cell culture medium was collected, and purified to obtain the monkey TIM-3 protein with hFc tag (herein referred to as cTIM-3-hFc protein). […] The cell culture medium was collected, and purified to obtain the murine TIM-3 protein with hFc tag (herein referred to as mTIM-3-hFc protein). Purified human, monkey, and mouse TIM-3 extracellular domain proteins (hTIM-3-hFc, cTIM-3-hFc, and mTIM-3-hFc) were diluted with PBS to a final concentration of 1.0 μg/ml and then added to a 96-well ELISA plate with 100 μl per well. The plate was sealed with plastic film and incubated overnight at 4° C. The plate was washed 4 times with the plate washing solution (PBS+0.01% Tween20) on the next day, and added with the blocking solution (PBS+0.01% Tween20+1% BSA) and sealed at room temperature for 1-2 hours. The blocking solution was poured out. 50-100 μl of the antibody sample to be tested was added to each well. The plate was incubated at 37° C. for 1-2 hours, and washed 2-3 times with plate washing solution (PBS+0. 01% Tween20). HRP (horseradish peroxidase) labeled secondary antibody was added. The plate was incubated at 37° C. for 1-2 hours, and washed 2-3 times with plate washing solution (PBS+0. 01% Tween20). […] of TMB substrate was added to each well. After incubated at room temperature for 15-30 minutes, the plate was added with […] stop solution (1.0N HCl) to each well. An ELISA plate reader (TiterMax 384plus, Molecular Device) was used to read the A450 nm value.

[8] = target: T6, murine TIM-3 protein with hFc tag …; assay: ELISA, coated mTIM-3-hFc
[9] = target: T6, murine TIM-3 protein with hFc tag …; assay: ELISA, coated mTIM-3-hFc; antibody 0.0067 nM
Description: as §1

| Mean fluorescence intensity [1] | Mean fluorescence intensity [2] | OD450 [3] | OD450 [4] | OD450 [5] | OD450 [6] | OD450 [7] | binding result [8] | OD450 [9] | Binder |
| --- | --- | --- | --- | --- | --- | --- | --- | --- | --- |
| 298 | 11.5 | 3.28 | 2.88 | 0.13 | 0.31 | – | – | – | B1 |
| – | – | – | – | – | – | 0.77 | no binding (tested: 66.667 nM) | 0.64 | B2 |
| – | – | – | – | – | – | 1.1 | no binding (tested: 66.667 nM) | 0.65 | B3 |
| 154 | 11.4 | 3.29 | 2.89 | 0.16 | 0.33 | – | – | – | B4 |
| 229 | 16.8 | 3.19 | 2.74 | 0.13 | 0.21 | – | – | – | B5 |
| – | – | – | – | – | – | 0.9 | no binding (tested: 66.667 nM) | 0.64 | B6 |
| – | – | – | – | – | – | 0.85 | no binding (tested: 66.667 nM) | 0.63 | B7 |
| – | – | – | – | – | – | 0.74 | no binding (tested: 66.667 nM) | 0.68 | B8 |
| – | – | – | – | – | – | 0.7 | no binding (tested: 66.667 nM) | 0.64 | B9 |
| 308 | 7.1 | 3.12 | 2.75 | 0.13 | 0.22 | – | – | – | B10 |
| – | – | – | – | – | – | 0.66 | no binding (tested: 66.667 nM) | 0.64 | B11 |
